40 sequences from the nanobody polyreactivity screen of Harvey et al. (2022) can be followed below.

The data set is described as follows: yeast display, Sf9 membrane polyspecificity reagent, FACS + sequencing; frameworks hold sequencing errors. The method in brief: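 Galactose-induced (36–48 hours) yeast carrying a synthetic nanobody display library were exposed to 10% biotinylated, detergent-solubilized Sf9 membrane reagent at 4 °C for 1 hour. FACS followed streptavidin microbead enrichment, using low and high (top ~1%) gates for expression (anti-HA) and reagent binding (streptavidin). Colony PCR, MiSeq 2 × 250 sequencing and CDR-length filtering followed. Labels for polyreactivity reflect the gate of origin.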
Regarding “QVQLVESGGGLVQAGGSLRLSCSASGSTFYGYAMGWYRQAPGKEWELVAAINWSGGSTYYADSVKGRFTISRDNAKNTVYLQMNSLKPEDTAVYYCNKAWLGSVSRRYYYWGQGTQVTVSS”, the “polyreactivity (PSR sort gate)” value is given as “high polyreactivity”.

Take “QVQLVESGGGLVQAGGSLRLSCSASGSTFYRKTMGWYRQAPGKERELVAAISSGGGTKYADSVKGRFTISRDNAKNTVYLQMNSLKPEDTAVYYCAAVYYTLGYAYYPYIYYYWGQGTQVTVSS”: the “polyreactivity (PSR sort gate)” value was “high polyreactivity”. The result for “QVQLVESGGGLVQAGGSLRLSCSASGSTITTYAMGWYRQAPGKERELVAAISTNGGRTCYADSVKGRFTISRDYAKNTVSLQMNSLKPEDTAVYYCAAEYGLYAPGYYYWGQGTQVTVSS” reads “low polyreactivity”; that for “QVQLVESGGGLVQAGGSLRLSCSASGSTSGKYAMGWYRQAPGKESELVAGITKGGGGTYYADSVKGRFTISRDNAKNTVYLQMNSLKPEDTAVYYCAKYYGSGYYIYDYWGQGTQVTVSS”, “low polyreactivity”. The result for “QVQLVESGGGLVQAGGSLRLSCSASGSTSYYYAMGWYRQAPGKERELVATISTTGAGTYYADSVKGRFTISRDNAKTTVYLQMNILKPEDTAVFYCAKDGKASRDDAEYYYWGQGTQVTVSS” reads “low polyreactivity”.

As to “QVQLVESGGGLVQAGGSLRLSCSASGSTYYNAMGWYRQAPGKERQLVAAIRFRSGSTYYADSVKGRFTISRDNAKNTVYLQMNSLKPEDTAVYYCAADNKRSWRYAYTYWGQGTQVTVSS”, the “polyreactivity (PSR sort gate)” value is “high polyreactivity”. As for “QVQLVESGGGLVQAGGSLRLSCSASGTILYFYAMGWYRQAQGKERELVAAIDSGGSTDYADSVKGRFTISRYNAKNTVYLQMNSLKPEDTAVYYCAAYPWERYTWWYVYRGHVYWGQGTQVTVSS”, the “polyreactivity (PSR sort gate)” value is “low polyreactivity”.

Turning to “QVQLVESGGGLVQAGGSLRLSCSASGTTFRYNAMGRYRQAPGKERQLVAAITSGGTTNYADSVKGRFTISRDNAKNTVYLQMNSLKPEDTAVYYCAKKRPGFLRYGSIGEFQYDYWGQGTQVTVSS”, the “polyreactivity (PSR sort gate)” value is “low polyreactivity”.

In the case of “QVQLVESGGGLVQAGGSLRLSCSASGYIFDYNAMGWYIQAPGKERELVAAITFRDGSTYADSVKGRFTISRDNAKNTVYLQMNSLKPEDTAVYYCNRRSQVHSHSKHDYWGQGTQVTVSS”, the “polyreactivity (PSR sort gate)” value is “low polyreactivity”. Under “QVQLVESGGGLVQAGGSLRLSCSASGYIFSSNTMGWYRQAPGTERELVAGISGRTGRTYYADSVKGRFTISRDNAKNTVYLQMNSLKPEDTAVYYCARVPYQGYPRRRLSGYYYWGQGTQVTVSS” stands “high polyreactivity”; under “QVQLVESGGGLVQAGGSLRLSCTASGIIFGTYAMGWYRQAPGKERELVAAISSSGVSTYYADSVKGRFTISRDNAKNTVYLQMNSLKPEDTAVYYCAAPLHYGYYYWGQGTQVTVSS”, “high polyreactivity”; under “QVQLVESGGGLVQAGGSLRLSCTASGNTFALYAMGWYRQAPGKERELVARISRRGGSTYYADSVKGRFTISRDNAKNTVYLQMNSLKPEDTAVYYCAKTHSYYPWEVNYWGQGTQVTVSS”, “high polyreactivity”.

As for “QVQLVESGGGLVQAGGSLRLSCTASGRTLYNYTMGWYRQAPGKERELVAAISRGGGSTYYADSVKGRFTISRDNAKNTVYLQMNSLKQEDTAVYYCATDQTYPYCGGGDYWGQGTQVTVSS”, the “polyreactivity (PSR sort gate)” value is given as “low polyreactivity”. With “QVQLVESGGGLVQAGGSLRLSFAASGFTFSAYAMGWYRQAPGKERELVASISGSAGSTYYADTVKGRFTISRYNAKNTVYLHMNSLKPEDTAVYYCNARRRQWQARYDYWGQGTQITVSS”, the “polyreactivity (PSR sort gate)” value is “high polyreactivity”. The result for “QVQLVESGGGLVQAGGSLRLSFAASGIIFDLYAMGWYRQAPGKERELVAAITRSVGSTYYADSVKGRFTISRDNAKNTVYLQMNSLKPEDTAVYFCAAVRFAYGYTYDYWGQGTQVTVSS” reads “high polyreactivity”; that for “QVQLVESGGGLVQAGGSLRLSFAASGIIFGWYAVGWYRQAHGKDRELVAAINIGGSTNYADSVKGRFTISRYNAKNTVYLQMNSLKPEDTADYYCNARTPGYRYGRDYWGQGTQVTVSS”, “high polyreactivity”; that for “QVQLVESGGGLVQAGGSLRLSFAASGIIFTRYAMGWYRQAPGKERELVARISWRGSSTSYPDSVKGRFTISRDNAKNTVYLQMNSLKPEDSAVYYCAARYLYLWADYEFGYWVQGTQVTVSS”, “high polyreactivity”. In the case of “QVQLVESGGGLVQAGGSLRLSFAASGITFASNTMGWYRQAPGKERELVAAITRGDNTYYADSVKGRFTISRDNAKNTVYLQMKSLKPEDTAVYYCAKDPHGVEPVPDGYDYWGQGTQVTVSS”, the “polyreactivity (PSR sort gate)” value is on record as “low polyreactivity”. With “QVQLVESGGGLVQAGGSLRLSFAASGRIFQFYGMGWYRQAPGKEREFVAAITRNGGNTYYADSVKGRYTISRDNAKNTVDLQMNSLKPEDTAVYYCAAANPRDHRGANDYWGQGTQVTVSS”, the “polyreactivity (PSR sort gate)” value is given as “high polyreactivity”. With “QVQLVESGGGLVQAGGSLRLSFAASGRNFYRYAMGWYRQAPGKERELVAAISRGGRTNYADSVKGRFTISRDNAKNTGYLQMNSLKPEDTAVYYCAVTNFGALYDYWGQGTQVTVSS”, the “polyreactivity (PSR sort gate)” value is given as “high polyreactivity”. Consider “QVQLVESGGGLVQAGGSLRLSFAASGRTFEKYAMGWYRQAPGKERELVAAISGSGGSTFYADSVKGRFTISRDIAKYTVYLQMISLKPEDSAVYYCAADSRSHPGDYWGQGTQVTVSS”, for which the “polyreactivity (PSR sort gate)” value is reported as “low polyreactivity”. Under “QVQLVESGGGLVQAGGSLRLSFAASGRTFGGYTMGWYRQAPGKERELVAAITWNGGRTYYADSVKGRFTISRDNAKNTVYLQMNILKPEDTAVYFCAVRIRLRRARLSYDYWGQGTQVTVSS” stands “high polyreactivity”; under “QVQLVESGGGLVQAGGSLRLSFAASGSIFASNAMGWYRQAPGKERELVAAISKRGGSTYYVDSVKGRFTISRDNAKNTVYFQMNSLKPEDTAVYYCNTYIRQDAPGQYDYWGQGTQVTVSS”, “high polyreactivity”; under “QVQLVESGGGLVQAGGSLRLSFAASGSIFASNTMGWNSPEPGKERELVAAISSNGGSTYYADSVKGRFTISRDNAKNTFYLQMNSLKPEDTGVYYCNAELSTSELGGMYSWGQGTQVTVSS”, “low polyreactivity”. Take “QVQLVESGGGLVQAGGSLRLSFAASGSIFVQYAMRWYRPAPGKERELVAAIDFSDTSTYYADSVKGRFTISRDNAKNTVYLHMNSLKPEDTAVYYCAAEEDSPCRSAIAEEEYWGQGTLVTVSS”: the “polyreactivity (PSR sort gate)” value is listed as “low polyreactivity”. Under “QVQLVESGGGLVQAGGSLRLSFAASGSIFYVYAMGWYRQAPGKERELVAAITWSGGSTYYADSVKGRFTLSRDNAKNTVYLQMNSLKPEDTAVYYCAADEGYDYPYYYWGQGTQVTVSS” stands “high polyreactivity”; under “QVQLVESGGGLVQAGGSLRLSFAASGSTFSRYAMGWYRQAPGKERELVAAISSGGGTNYADSVKGRFTISRDNAKNTVYLQMNSLKPEDTSVYYRAAVTVDFLKGYGWWFWQISDFWGQVTQVTVSS”, “low polyreactivity”. Take “QVQLVESGGGLVQAGGSLRLSFAASGSTFYVYPMGWYRQAPGKERELVAAITDSGGSTYADSVKGRFTISRDNAMNTVYLQFNSLKPEASAVYADSTFYWYYYYWGQGPQVTVSS”: the “polyreactivity (PSR sort gate)” value was “low polyreactivity”. The result for “QVQLVESGGGLVQAGGSLRLSFASSGRIFIAYAMGWYRQAPGIERELVAAITSGGGTYYADSVKGRFTISRDNAKNTVYLQMNSLKPVDTAVYYCAAACGRRYPDKFVAITPTYDFWGQGTQVTVSS” reads “low polyreactivity”. In the case of “QVQLVESGGGLVQAGGSLRLSFPASGSTYFTYAMGWYRQAPGKERELVAAISWSGGTTYYADSVKGRFTISRDNAKNTVYLQMNSLKPEDTAVYYCASDRAGILKANDYWGKGTQVTVSS”, the “polyreactivity (PSR sort gate)” value is given as “low polyreactivity”. Under “QVQLVESGGGLVQAGGSLRLSGAASGFIFGYYAMGWYRQAPGKERELVAAITSRGGSTYYADSVKGRFTISRDNAKNTVYLQMNSLKPEDTAVYYCAAGYNGYGLQYYYWGQGTQVTVSS” stands “high polyreactivity”. For “QVQLVESGGGLVQAGGSLRLSGAASGRIFYYNTMGWYRQAPGKEWEVVAAISSTAYTTYADSVKGRFTISRDNAKNTVYLQMYSLKPEDTAVYYCAAYRYSRYRQRYNYWGQGTQVTVSS”, the “polyreactivity (PSR sort gate)” value is reported as “high polyreactivity”.

Consider “QVQLVESGGGLVQAGGSLRLSGAASGRTCGTNAMGWSRQAHGKERELVAAISSSGGSTYYADSVKGRFTISRDNAKNTVYLQMISQKPEDTAVYYCAQGWHRGVGFGYWGQGTQVTVSS”, for which the “polyreactivity (PSR sort gate)” value was “high polyreactivity”. The result for “QVQLVESGGGLVQAGGSLRLSGAASGSTFGWYVMGWYRQAPGKERELVASITGSGGSTYYADSVKGRFTISRDHAKNTVYLQMNSLNPEDTAVYYCAAHTGWYDDWTHDSWGQGTQVTVSS” reads “low polyreactivity”. As to “QVQLVESGGGLVQAGGSLRLSGAASGSTFTEYAMGWYRQAPGKEREFVAAITESGASTYYADSVKGRFTISRDNAKNTVYLQRNSLKPEDTAVYYCNAGYWRFIDSYDYWGQGTQVTVSS”, the “polyreactivity (PSR sort gate)” value is given as “high polyreactivity”. Under “QVQLVESGGGLVQAGGSLRLSGAAWSIFYLNAMGWYRKAPGKERELVAAISSAGSTYYADSVKGRFTISRDNAKNTVYLQMNSLKPEDTAVYYCAAYWYDSPGVTEIWYDYWGQGTQVTVSS” stands “low polyreactivity”; under “QVQLVESGGGLVQAGGSLRLSGDASGRIFRLYAMGWYRQAPGKEREFVAAISRSGGRTYYADSVKGRFTISRDNAKNTVYLQMNSLKPEDTAVYYCAAVYRQCGDYYSRDYYWGQGTQVTVSS”, “high polyreactivity”; under “QVQLVESGGGLVQAGGSLRLSLAASGSIFRAYVMGWYRPAPGKERELVAAITRSGARTYYADSLKGRFTLSRDNAKNTVYLQMNSLKPEDTAVYYCAAETSGSQSKLYYYWGQGTQVTVSS”, “high polyreactivity”. “QVQLVESGGGLVQAGGSLRLSRAASGSTLSLYAMGWYRQAPGKERELVAAITSSGGTYYADSVKGRFTISRDNAKNTVYLQMNSLKPEDTAVYYCAADPRSYFTSEYWGQGTQVTVSS”: the “polyreactivity (PSR sort gate)” value is recorded as “high polyreactivity”. The result for “QVQLVESGGGLVQAGGSLRLSSAASGFIFDYSAMGWYRQAPGKERELVAAITRDGGGTYYADSVKGRFTISRDNANNTVYLQMNRLKPEDTAVYYCAARRAVRLYYWGQGTQVTVSA” reads “high polyreactivity”.
